# Laboratory results reported in patent US12679878B2, “CRF2 receptor agonists and their use in therapy” (SANOFI, priority 2020, dated 2026).
# Starred links: 1 amine or outer side, 2 acyl side, 3 side chain; linkers in the order of their positions; H or OH if unused. Non-standard residues stand in square brackets, D forms with d. Groups on a side chain read outwards from the residue. No end group written: not given here. *: point of attachment. C18 diacid = O=C(O)CCCCCCCCCCCCCCCCC(=O)*; γGlu = O=C(O)[C@H](CCC(=O)[*:2])N[*:1]; Palmitoyl = CCCCCCCCCCCCCCCC(=O)*; AEEA = NCCOCCOCC(=O)O; Aib = CC(C)(N)C(=O)O
# B1: SEQ ID NO: 89 (peptide)
# peptide: IVLSLDVPIKLK([AEEA-AEEA-γGlu-C18 diacid])QILLKQERQKKQREQAKTN[Aib]QILAQV-NH2
# modifications: N-terminus assumed
# SMILES: CC[C@H](C)[C@H](N)C(=O)N[C@H](C(=O)N[C@@H](CC(C)C)C(=O)N[C@@H](CO)C(=O)N[C@@H](CC(C)C)C(=O)N[C@@H](CC(=O)O)C(=O)N[C@H](C(=O)N1CCC[C@H]1C(=O)N[C@H](C(=O)N[C@@H](CCCCN)C(=O)N[C@@H](CC(C)C)C(=O)N[C@@H](CCCCNC(=O)COCCOCCNC(=O)COCCOCCNC(=O)CC[C@H](NC(=O)CCCCCCCCCCCCCCCCC(=O)O)C(=O)O)C(=O)N[C@@H](CCC(N)=O)C(=O)N[C@H](C(=O)N[C@@H](CC(C)C)C(=O)N[C@@H](CC(C)C)C(=O)N[C@@H](CCCCN)C(=O)N[C@@H](CCC(N)=O)C(=O)N[C@@H](CCC(=O)O)C(=O)N[C@@H](CCCNC(=N)N)C(=O)N[C@@H](CCC(N)=O)C(=O)N[C@@H](CCCCN)C(=O)N[C@@H](CCCCN)C(=O)N[C@@H](CCC(N)=O)C(=O)N[C@@H](CCCNC(=N)N)C(=O)N[C@@H](CCC(=O)O)C(=O)N[C@@H](CCC(N)=O)C(=O)N[C@@H](C)C(=O)N[C@@H](CCCCN)C(=O)N[C@H](C(=O)N[C@@H](CC(N)=O)C(=O)NC(C)(C)C(=O)N[C@@H](CCC(N)=O)C(=O)N[C@H](C(=O)N[C@@H](CC(C)C)C(=O)N[C@@H](C)C(=O)N[C@@H](CCC(N)=O)C(=O)N[C@H](C(N)=O)C(C)C)[C@@H](C)CC)[C@@H](C)O)[C@@H](C)CC)[C@@H](C)CC)C(C)C)C(C)C
# B2: SEQ ID NO: 6 (peptide)
# peptide: IVLSLDVPIGLK([γGlu-Palmitoyl])QKLLKQQRQRKERQQAEKNARILARV-NH2
# modifications: N-terminus assumed
# SMILES: CCCCCCCCCCCCCCCC(=O)N[C@@H](CCC(=O)NCCCC[C@H](NC(=O)[C@H](CC(C)C)NC(=O)CNC(=O)[C@@H](NC(=O)[C@@H]1CCCN1C(=O)[C@@H](NC(=O)[C@H](CC(=O)O)NC(=O)[C@H](CC(C)C)NC(=O)[C@H](CO)NC(=O)[C@H](CC(C)C)NC(=O)[C@@H](NC(=O)[C@@H](N)[C@@H](C)CC)C(C)C)C(C)C)[C@@H](C)CC)C(=O)N[C@@H](CCC(N)=O)C(=O)N[C@@H](CCCCN)C(=O)N[C@@H](CC(C)C)C(=O)N[C@@H](CC(C)C)C(=O)N[C@@H](CCCCN)C(=O)N[C@@H](CCC(N)=O)C(=O)N[C@@H](CCC(N)=O)C(=O)N[C@@H](CCCNC(=N)N)C(=O)N[C@@H](CCC(N)=O)C(=O)N[C@@H](CCCNC(=N)N)C(=O)N[C@@H](CCCCN)C(=O)N[C@@H](CCC(=O)O)C(=O)N[C@@H](CCCNC(=N)N)C(=O)N[C@@H](CCC(N)=O)C(=O)N[C@@H](CCC(N)=O)C(=O)N[C@@H](C)C(=O)N[C@@H](CCC(=O)O)C(=O)N[C@@H](CCCCN)C(=O)N[C@@H](CC(N)=O)C(=O)N[C@@H](C)C(=O)N[C@@H](CCCNC(=N)N)C(=O)N[C@H](C(=O)N[C@@H](CC(C)C)C(=O)N[C@@H](C)C(=O)N[C@@H](CCCNC(=N)N)C(=O)N[C@H](C(N)=O)C(C)C)[C@@H](C)CC)C(=O)O
# B3: SEQ ID NO: 88 (peptide)
# peptide: IVLSLDVPIKLK([AEEA-AEEA-γGlu-C18 diacid])QILLKQERQKKQREKAKTN[Aib]QILAQV-NH2
# modifications: N-terminus assumed
# SMILES: CC[C@H](C)[C@H](N)C(=O)N[C@H](C(=O)N[C@@H](CC(C)C)C(=O)N[C@@H](CO)C(=O)N[C@@H](CC(C)C)C(=O)N[C@@H](CC(=O)O)C(=O)N[C@H](C(=O)N1CCC[C@H]1C(=O)N[C@H](C(=O)N[C@@H](CCCCN)C(=O)N[C@@H](CC(C)C)C(=O)N[C@@H](CCCCNC(=O)COCCOCCNC(=O)COCCOCCNC(=O)CC[C@H](NC(=O)CCCCCCCCCCCCCCCCC(=O)O)C(=O)O)C(=O)N[C@@H](CCC(N)=O)C(=O)N[C@H](C(=O)N[C@@H](CC(C)C)C(=O)N[C@@H](CC(C)C)C(=O)N[C@@H](CCCCN)C(=O)N[C@@H](CCC(N)=O)C(=O)N[C@@H](CCC(=O)O)C(=O)N[C@@H](CCCNC(=N)N)C(=O)N[C@@H](CCC(N)=O)C(=O)N[C@@H](CCCCN)C(=O)N[C@@H](CCCCN)C(=O)N[C@@H](CCC(N)=O)C(=O)N[C@@H](CCCNC(=N)N)C(=O)N[C@@H](CCC(=O)O)C(=O)N[C@@H](CCCCN)C(=O)N[C@@H](C)C(=O)N[C@@H](CCCCN)C(=O)N[C@H](C(=O)N[C@@H](CC(N)=O)C(=O)NC(C)(C)C(=O)N[C@@H](CCC(N)=O)C(=O)N[C@H](C(=O)N[C@@H](CC(C)C)C(=O)N[C@@H](C)C(=O)N[C@@H](CCC(N)=O)C(=O)N[C@H](C(N)=O)C(C)C)[C@@H](C)CC)[C@@H](C)O)[C@@H](C)CC)[C@@H](C)CC)C(C)C)C(C)C
# B4: SEQ ID NO: 86 (peptide)
# peptide: IVLSLDVPIKLK([AEEA-AEEA-γGlu-C18 diacid])QILLKQERQKKQREQAKTNKQILAQV-NH2
# modifications: N-terminus assumed
# SMILES: CC[C@H](C)[C@H](N)C(=O)N[C@H](C(=O)N[C@@H](CC(C)C)C(=O)N[C@@H](CO)C(=O)N[C@@H](CC(C)C)C(=O)N[C@@H](CC(=O)O)C(=O)N[C@H](C(=O)N1CCC[C@H]1C(=O)N[C@H](C(=O)N[C@@H](CCCCN)C(=O)N[C@@H](CC(C)C)C(=O)N[C@@H](CCCCNC(=O)COCCOCCNC(=O)COCCOCCNC(=O)CC[C@H](NC(=O)CCCCCCCCCCCCCCCCC(=O)O)C(=O)O)C(=O)N[C@@H](CCC(N)=O)C(=O)N[C@H](C(=O)N[C@@H](CC(C)C)C(=O)N[C@@H](CC(C)C)C(=O)N[C@@H](CCCCN)C(=O)N[C@@H](CCC(N)=O)C(=O)N[C@@H](CCC(=O)O)C(=O)N[C@@H](CCCNC(=N)N)C(=O)N[C@@H](CCC(N)=O)C(=O)N[C@@H](CCCCN)C(=O)N[C@@H](CCCCN)C(=O)N[C@@H](CCC(N)=O)C(=O)N[C@@H](CCCNC(=N)N)C(=O)N[C@@H](CCC(=O)O)C(=O)N[C@@H](CCC(N)=O)C(=O)N[C@@H](C)C(=O)N[C@@H](CCCCN)C(=O)N[C@H](C(=O)N[C@@H](CC(N)=O)C(=O)N[C@@H](CCCCN)C(=O)N[C@@H](CCC(N)=O)C(=O)N[C@H](C(=O)N[C@@H](CC(C)C)C(=O)N[C@@H](C)C(=O)N[C@@H](CCC(N)=O)C(=O)N[C@H](C(N)=O)C(C)C)[C@@H](C)CC)[C@@H](C)O)[C@@H](C)CC)[C@@H](C)CC)C(C)C)C(C)C
# B5: SEQ ID NO: 85 (peptide)
# peptide: IVLSLDVPIKLK([AEEA-AEEA-γGlu-C18 diacid])QILLKQERQKKQREQAETNKQILAQV-NH2
# modifications: N-terminus assumed
# SMILES: CC[C@H](C)[C@H](N)C(=O)N[C@H](C(=O)N[C@@H](CC(C)C)C(=O)N[C@@H](CO)C(=O)N[C@@H](CC(C)C)C(=O)N[C@@H](CC(=O)O)C(=O)N[C@H](C(=O)N1CCC[C@H]1C(=O)N[C@H](C(=O)N[C@@H](CCCCN)C(=O)N[C@@H](CC(C)C)C(=O)N[C@@H](CCCCNC(=O)COCCOCCNC(=O)COCCOCCNC(=O)CC[C@H](NC(=O)CCCCCCCCCCCCCCCCC(=O)O)C(=O)O)C(=O)N[C@@H](CCC(N)=O)C(=O)N[C@H](C(=O)N[C@@H](CC(C)C)C(=O)N[C@@H](CC(C)C)C(=O)N[C@@H](CCCCN)C(=O)N[C@@H](CCC(N)=O)C(=O)N[C@@H](CCC(=O)O)C(=O)N[C@@H](CCCNC(=N)N)C(=O)N[C@@H](CCC(N)=O)C(=O)N[C@@H](CCCCN)C(=O)N[C@@H](CCCCN)C(=O)N[C@@H](CCC(N)=O)C(=O)N[C@@H](CCCNC(=N)N)C(=O)N[C@@H](CCC(=O)O)C(=O)N[C@@H](CCC(N)=O)C(=O)N[C@@H](C)C(=O)N[C@@H](CCC(=O)O)C(=O)N[C@H](C(=O)N[C@@H](CC(N)=O)C(=O)N[C@@H](CCCCN)C(=O)N[C@@H](CCC(N)=O)C(=O)N[C@H](C(=O)N[C@@H](CC(C)C)C(=O)N[C@@H](C)C(=O)N[C@@H](CCC(N)=O)C(=O)N[C@H](C(N)=O)C(C)C)[C@@H](C)CC)[C@@H](C)O)[C@@H](C)CC)[C@@H](C)CC)C(C)C)C(C)C
# B6: SEQ ID NO: 87 (peptide)
# peptide: IVLSLDVPIKLK([AEEA-AEEA-γGlu-C18 diacid])QILLKQERQKKQREKAKTNKQILAQV-NH2
# modifications: N-terminus assumed
# SMILES: CC[C@H](C)[C@H](N)C(=O)N[C@H](C(=O)N[C@@H](CC(C)C)C(=O)N[C@@H](CO)C(=O)N[C@@H](CC(C)C)C(=O)N[C@@H](CC(=O)O)C(=O)N[C@H](C(=O)N1CCC[C@H]1C(=O)N[C@H](C(=O)N[C@@H](CCCCN)C(=O)N[C@@H](CC(C)C)C(=O)N[C@@H](CCCCNC(=O)COCCOCCNC(=O)COCCOCCNC(=O)CC[C@H](NC(=O)CCCCCCCCCCCCCCCCC(=O)O)C(=O)O)C(=O)N[C@@H](CCC(N)=O)C(=O)N[C@H](C(=O)N[C@@H](CC(C)C)C(=O)N[C@@H](CC(C)C)C(=O)N[C@@H](CCCCN)C(=O)N[C@@H](CCC(N)=O)C(=O)N[C@@H](CCC(=O)O)C(=O)N[C@@H](CCCNC(=N)N)C(=O)N[C@@H](CCC(N)=O)C(=O)N[C@@H](CCCCN)C(=O)N[C@@H](CCCCN)C(=O)N[C@@H](CCC(N)=O)C(=O)N[C@@H](CCCNC(=N)N)C(=O)N[C@@H](CCC(=O)O)C(=O)N[C@@H](CCCCN)C(=O)N[C@@H](C)C(=O)N[C@@H](CCCCN)C(=O)N[C@H](C(=O)N[C@@H](CC(N)=O)C(=O)N[C@@H](CCCCN)C(=O)N[C@@H](CCC(N)=O)C(=O)N[C@H](C(=O)N[C@@H](CC(C)C)C(=O)N[C@@H](C)C(=O)N[C@@H](CCC(N)=O)C(=O)N[C@H](C(N)=O)C(C)C)[C@@H](C)CC)[C@@H](C)O)[C@@H](C)CC)[C@@H](C)CC)C(C)C)C(C)C
# Target: human corticotropin-releasing factor 2α (CRF2 α receptor) (human), Q13324
# Sequence (Q13324 20-411): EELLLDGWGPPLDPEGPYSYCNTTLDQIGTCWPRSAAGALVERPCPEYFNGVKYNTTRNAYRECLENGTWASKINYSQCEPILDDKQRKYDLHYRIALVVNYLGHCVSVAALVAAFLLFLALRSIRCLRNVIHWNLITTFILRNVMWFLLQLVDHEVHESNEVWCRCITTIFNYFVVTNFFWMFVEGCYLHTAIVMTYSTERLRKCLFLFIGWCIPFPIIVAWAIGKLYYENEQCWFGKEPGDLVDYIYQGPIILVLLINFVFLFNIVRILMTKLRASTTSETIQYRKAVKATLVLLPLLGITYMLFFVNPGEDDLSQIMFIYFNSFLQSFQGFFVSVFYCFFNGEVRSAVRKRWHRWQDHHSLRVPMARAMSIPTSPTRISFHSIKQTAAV
# Assay: cell-based or functional assay
Binder,"EC50 [nM], 0% HSA","EC50 [nM], 0.1% HSA"
B1,0.3 nM,15.6 nM
B2,0.16 nM,0.18 nM
B3,0.68 nM,25.7 nM
B4,0.11 nM,5.7 nM
B5,0.1 nM,3.58 nM
B6,0.23 nM,16.2 nM
